For series [1], the system named is CCCCCCCC(=O)Oc1ccc([N+](=O)[O-])cc1. The series is described as follows: purified protein. The following applies: 50 mM sodium phosphate pH 7, 40 °C.
Series [2] has as its system CCCCCCCCCCCC(=O)Oc1ccc([N+](=O)[O-])cc1. Briefly: purified protein. As to conditions: 50 mM sodium phosphate pH 7, 40 °C.
Series [3] relates to CCCCCCCCCCCCCCCC(=O)Oc1ccc([N+](=O)[O-])cc1. Briefly: purified protein. As to conditions: 50 mM sodium phosphate pH 7, 40 °C.
Series [4] concerns CCCC(=O)Oc1ccc([N+](=O)[O-])cc1. Briefly: purified protein. The following applies: 50 mM sodium phosphate pH 7, 40 °C.
Another series concerns the target T1, FsCut (Fusarium vanettenii, UniProt P00590).
T1 construct: gene CUT1
The series is described as follows: pNP release at […] nm, nonlinear Michaelis-Menten fit. The following applies: read-out: FsCut; 50 mM sodium phosphate pH 7, 40 °C.

Substrate in series [5]: CCCCCCCC(=O)Oc1ccc([N+](=O)[O-])cc1
The series is described as follows: purified protein. As to conditions: 50 mM sodium phosphate pH 7, 40 °C. In kind it is biochemical, Coprinopsis cinerea.

Substrate in series [6]: CCCCCCCCCCCC(=O)Oc1ccc([N+](=O)[O-])cc1
Briefly: purified protein. In kind it is biochemical, Coprinopsis cinerea. The following applies: 50 mM sodium phosphate pH 7, 40 °C.

Substrate in series [7]: CCCCCCCCCCCCCCCC(=O)Oc1ccc([N+](=O)[O-])cc1
The series is described as follows: purified protein. In kind it is biochemical, Coprinopsis cinerea. The following applies: 50 mM sodium phosphate pH 7, 40 °C.

Substrate in series [8]: CCCC(=O)Oc1ccc([N+](=O)[O-])cc1
The series is described as follows: purified protein. Format: biochemical, Coprinopsis cinerea. As to conditions: 50 mM sodium phosphate pH 7, 40 °C.

Substrate in series [9]: CCCCCCCC(=O)Oc1ccc([N+](=O)[O-])cc1
The series is described as follows: purified protein. Format: biochemical, Cryptococcus sp. S-2. As to conditions: 50 mM sodium phosphate pH 7, 40 °C.

Substrate in series [10]: CCCCCCCCCCCC(=O)Oc1ccc([N+](=O)[O-])cc1
Briefly: purified protein. In kind it is biochemical, Cryptococcus sp. S-2. The following applies: 50 mM sodium phosphate pH 7, 40 °C.

Substrate in series [11]: CCCCCCCCCCCCCCCC(=O)Oc1ccc([N+](=O)[O-])cc1
The series is described as follows: purified protein. Format: biochemical, Cryptococcus sp. S-2. As to conditions: 50 mM sodium phosphate pH 7, 40 °C.

Substrate in series [12]: CCCC(=O)Oc1ccc([N+](=O)[O-])cc1
The series is described as follows: purified protein. Format: biochemical, Cryptococcus sp. S-2. The following applies: 50 mM sodium phosphate pH 7, 40 °C.

Substrate in series [13]: CCCCCCCC(=O)Oc1ccc([N+](=O)[O-])cc1
The series is described as follows: purified protein. In kind it is biochemical, Thermothielavioides terrestris. The following applies: 50 mM sodium phosphate pH 7, 40 °C.

Substrate in series [14]: CCCCCCCCCCCC(=O)Oc1ccc([N+](=O)[O-])cc1
Briefly: purified protein. Format: biochemical, Thermothielavioides terrestris. As to conditions: 50 mM sodium phosphate pH 7, 40 °C.

Substrate in series [15]: CCCCCCCCCCCCCCCC(=O)Oc1ccc([N+](=O)[O-])cc1
The series is described as follows: purified protein. Format: biochemical, Thermothielavioides terrestris. As to conditions: 50 mM sodium phosphate pH 7, 40 °C.

Substrate in series [16]: CCCC(=O)Oc1ccc([N+](=O)[O-])cc1
Briefly: purified protein. As to conditions: 50 mM sodium phosphate pH 7, 40 °C. Format: biochemical, Thermothielavioides terrestris.

The values below come from PMC8577158, “Phylogenetic analysis and in-depth characterization of functionally and structurally diverse CE5 cutinases” (The Journal of Biological Chemistry, 2021).

T1 sequence (P00590 32-230): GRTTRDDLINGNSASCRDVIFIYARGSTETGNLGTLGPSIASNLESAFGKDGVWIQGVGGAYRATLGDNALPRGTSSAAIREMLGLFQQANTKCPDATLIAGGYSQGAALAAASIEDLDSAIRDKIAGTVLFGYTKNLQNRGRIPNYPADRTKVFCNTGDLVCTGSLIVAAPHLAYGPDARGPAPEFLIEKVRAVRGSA

The term kcat denotes the maximal rate divided by the concentration of active sites. The kcat/Km is the turnover number divided by the Michaelis constant. With PbCut (Pyrenopeziza brassicae), the Km in [1] stood at 540 ± 70 µM; in [2], 80 ± 10 µM; in [3], 40 ± 10 µM; in series [4], 1710 ± 170 µM. In addition, the kcat in series [1] was found to be 1.43 ± 0.09 s⁻¹; in [2] it was 0.2 s⁻¹; in [3], 0.08 s⁻¹; in series [4], 6.45 ± 0.52 s⁻¹. The kcat/Km in [1] was found to be 2650 ± 190 M⁻¹ s⁻¹; in series [2], 2500 ± 180 M⁻¹ s⁻¹; in series [3], 2070 ± 250 M⁻¹ s⁻¹; in series [4], 3790 ± 70 M⁻¹ s⁻¹.

On to `CCCC(=O)Oc1ccc([N+](=O)[O-])cc1` [pNP-C4], for which the Km on FsCut came out at 1670 ± 40 µM.

FsCut (Fusarium vanettenii): the results for the Km in [1], in series [2] and in series [3] were 720 ± 10 µM, 50 ± 10 µM and 10 ± 0 µM, respectively. The kcat came to 6.69 ± 0.24 s⁻¹ in series [1], 1.22 ± 0.03 s⁻¹ in series [2] and 0.15 s⁻¹ in [3]. In addition, the kcat/Km in series [1] turned out to be 9250 ± 260 M⁻¹ s⁻¹; in series [2], 22800 ± 2090 M⁻¹ s⁻¹; in series [3] it was 10600 ± 1060 M⁻¹ s⁻¹.

B1: CcCut (Coprinopsis cinerea) (protein)
chain: QLFCRDVYVFFARGTGEVGTLGTVVGPGLSAAVKLAVRDSVEFEGIDYPALVSGYLAGGDRGGARTMANKVSQTASRCPNAKIFISGYSQGAQVTHLAARQLSAADQARVTGVVTFGDPYRDDALPGGLQSRRKTYCNVGDLICAGLPTLLAPHFTYGSDTPDAARWIAARV
Regarding B1, the Km in “purified protein [5]” was determined as 1670 ± 180 µM; in “purified protein [6]”, 2760 ± 50 µM; in “purified protein [7]”, 2900 ± 200 µM; in the series “purified protein [8]”, 3560 ± 150 µM. For the same molecule, the kcat in the series “purified protein [8]” amounted to 8.96 ± 0.39 s⁻¹. Also, the kcat/Km in the series “purified protein [8]” is 2520 M⁻¹ s⁻¹.

B2: CspCut (Cryptococcus sp. S-2) (protein)
chain: ATSSACPQYVLINTRGTGEPQGQSAGFRTMNSQITAALSGGTIYNTVYTADFSQNSAAGTADIIRRINSGLAANPNVCYILQGYSQGAAATVVALQQLGTSGAAFNAVKGVFLIGNPDHKSGLTCNVDSNGGTTTRNVNGLSVAYQGSVPSGWVSKTLDVCAYGDGVCDTAHGFGINAQHLSYPSDQGVQTMGYKFAVNKLGGSA
As for B2, the Km was found to be 50 ± 0 µM in the series “purified protein [9]”, 50 ± 0 µM in “purified protein [10]”, 50 ± 0 µM in “purified protein [11]” and 5540 ± 500 µM in the series “purified protein [12]”. The kcat in “purified protein [9]” is 3.81 ± 0.27 s⁻¹; in the series “purified protein [10]” it was 3.49 ± 0.06 s⁻¹; in “purified protein [11]” it was 3.38 ± 0.12 s⁻¹; in the series “purified protein [12]” it was 13.5 ± 0.25 s⁻¹. Besides, the kcat/Km was found to be 83200 ± 4200 M⁻¹ s⁻¹ in the series “purified protein [9]”, 65970 ± 600 M⁻¹ s⁻¹ in the series “purified protein [10]”, 70700 ± 6470 M⁻¹ s⁻¹ in the series “purified protein [11]” and 2510 ± 270 M⁻¹ s⁻¹ in “purified protein [12]”.

B3: TtCut (Thermothielavioides terrestris NRRL 8126) (protein)
chain: APTQPAGEAAVEARQLFSDTANDLENGVSSNCPKVIFICARGSTETGNLGSSVCPEVANGLKNYYPNQLWVQGVGGAYTADLASNALPGGTSTAAMQEAANMFNLAQQKCPNASVAAGGYSQGTAVVAGGIQSLSAAAKDQIKGVVLFGYTQAQQNHDTIPNFPVDKTMIFCAQGDLVCNGTLIVTAAHFSYITNGDASTKGPAWLHEKIGDA
B3: the Km came out at 390 ± 10 µM in “purified protein [13]”, 210 ± 0 µM in “purified protein [14]”, 500 ± 90 µM in the series “purified protein [15]” and 7080 ± 90 µM in “purified protein [16]”. Moreover, the kcat in the series “purified protein [13]” turned out to be 2.3 ± 0.06 s⁻¹. Also, in the series “purified protein [13]”, the kcat/Km is 5810 ± 50 M⁻¹ s⁻¹.
